Source: patent US20240368233A1 (University of Washington, published 2024)

T1: DFB0
T1 construct: Bivalent connector
T1 chain: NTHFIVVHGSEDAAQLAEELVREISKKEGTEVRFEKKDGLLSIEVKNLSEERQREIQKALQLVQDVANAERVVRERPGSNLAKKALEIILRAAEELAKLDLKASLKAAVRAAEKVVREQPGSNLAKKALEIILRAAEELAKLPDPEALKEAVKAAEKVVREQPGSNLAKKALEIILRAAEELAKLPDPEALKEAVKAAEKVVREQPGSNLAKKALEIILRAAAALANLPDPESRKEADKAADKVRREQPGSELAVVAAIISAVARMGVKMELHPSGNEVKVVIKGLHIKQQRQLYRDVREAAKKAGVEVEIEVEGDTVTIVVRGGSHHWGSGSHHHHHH

T2: DFB-1
T2 construct: Bivalent connector
T2 chain: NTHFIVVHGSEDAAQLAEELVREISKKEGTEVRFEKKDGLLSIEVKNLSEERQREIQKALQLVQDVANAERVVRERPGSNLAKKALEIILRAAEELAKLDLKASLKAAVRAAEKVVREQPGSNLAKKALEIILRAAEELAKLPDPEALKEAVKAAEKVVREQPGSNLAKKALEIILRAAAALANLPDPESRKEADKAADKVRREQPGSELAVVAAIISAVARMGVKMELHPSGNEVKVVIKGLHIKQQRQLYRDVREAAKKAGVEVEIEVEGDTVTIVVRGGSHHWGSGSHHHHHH

T3: TF3
T3 construct: Trivalent connector
T3 chain: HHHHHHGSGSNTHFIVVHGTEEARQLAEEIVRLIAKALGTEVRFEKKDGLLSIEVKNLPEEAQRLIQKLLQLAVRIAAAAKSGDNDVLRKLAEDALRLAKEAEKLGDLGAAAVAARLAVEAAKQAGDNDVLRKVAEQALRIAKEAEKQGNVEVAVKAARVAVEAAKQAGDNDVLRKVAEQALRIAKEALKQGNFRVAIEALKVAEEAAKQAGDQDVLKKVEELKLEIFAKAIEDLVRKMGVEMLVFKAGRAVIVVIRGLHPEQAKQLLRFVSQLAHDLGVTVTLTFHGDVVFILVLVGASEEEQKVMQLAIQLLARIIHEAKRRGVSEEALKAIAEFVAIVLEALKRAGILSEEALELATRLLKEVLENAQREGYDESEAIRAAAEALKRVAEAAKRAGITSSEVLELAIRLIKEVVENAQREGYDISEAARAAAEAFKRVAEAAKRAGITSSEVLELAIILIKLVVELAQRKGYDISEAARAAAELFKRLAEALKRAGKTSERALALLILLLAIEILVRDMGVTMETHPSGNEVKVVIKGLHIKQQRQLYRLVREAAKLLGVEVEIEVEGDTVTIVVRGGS

T4: TF10
T4 construct: Trivalent connector
T4 chain: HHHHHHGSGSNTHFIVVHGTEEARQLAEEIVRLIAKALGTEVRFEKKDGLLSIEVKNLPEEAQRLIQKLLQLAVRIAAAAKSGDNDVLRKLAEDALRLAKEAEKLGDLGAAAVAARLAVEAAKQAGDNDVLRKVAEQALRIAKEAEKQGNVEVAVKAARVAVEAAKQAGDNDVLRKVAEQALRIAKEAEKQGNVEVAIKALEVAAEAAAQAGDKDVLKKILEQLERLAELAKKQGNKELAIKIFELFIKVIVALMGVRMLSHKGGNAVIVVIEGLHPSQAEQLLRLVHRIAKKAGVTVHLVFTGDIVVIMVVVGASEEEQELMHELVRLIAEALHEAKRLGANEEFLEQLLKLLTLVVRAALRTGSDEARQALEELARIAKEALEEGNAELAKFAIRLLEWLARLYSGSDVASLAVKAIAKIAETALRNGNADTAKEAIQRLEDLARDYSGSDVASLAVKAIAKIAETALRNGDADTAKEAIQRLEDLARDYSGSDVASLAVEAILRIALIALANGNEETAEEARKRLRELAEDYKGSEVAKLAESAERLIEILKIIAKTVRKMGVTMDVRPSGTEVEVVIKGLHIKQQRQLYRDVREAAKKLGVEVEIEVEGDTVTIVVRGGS

B1: 274A53 (designed binder)
chain: TTNFHLINGSEEARQLIEKAVRAISKKEGTEVHFEKSDGTLEIRVKNLHEKREREIKKVIELILEVAAAERIVRERPGSNLAKKALEIILRAAEELAKADVDAALEAAVRAAEKVVREQPGSNLAKKALEIILRAAEELAKLPDPEALKEAVKAAEKVVREQPGSELAKKALEIIERAAEELKKSPDPEAQKEAKKAEQKVREESGSHHWGSGLNDIFEAQKIEWHEGSHHHHHH
notes: also called LHD274A DHR53 stop; LHD274A53
B2: 101B62 (designed binder)
chain: HHHHHHGSGLNDIFEAQKIEWHEAENLYFQSGSNDEKRKRAEKALQRAQEAEKKGDVEEAVRAAQEAVRAAKESGDNDVLRKVAEQALRIAKEAEKQGNVEVAVKAARVAVEAAKQAGDNDVLRKVAEQALRIAKEALKQGNVDVAAKAAQVAEEAAKQAGDQDVLRKVKEVQIEIVLAAIELTVRKMGVTMETHRSGREVKVVIKGLHESQQEQLLEDVLRIAELAGVRVRIRFKGDTVTIVVRG
notes: also called LHD101B62

Columns and labels:
[1] = biological target: the molecule itself; test: SEC titration (Superdex 200, normalised A230) of 274A53 and 29A53 alone; self-association
DFB0 = biological target: T1, DFB0; test: SEC of mixed components; trimer listed in Table 6
DFB-1 = biological target: T2, DFB-1; test: SEC of mixed components; trimer listed in Table 6
TF3 = biological target: T3, TF3; test: SEC of the trivalent connector TF3, its three caps and the full mixture, with SDS-PAGE of the fractions; components named in the legend
TF10 = biological target: T4, TF10; test: SEC (A230) of A---, -BCD and ABCD and negative-stain EM; components named in the legend of FIG. 17A, which paragraph 104 ties to FIG. 4A
Procedure: Complexes and individual components were diluted in 20 mM Tris pH 8.0, 100 mM NaCl. After o/n equilibration of the mixtures at room temperature or 4 degrees C., 500 ul of sample was injected onto a Superdex™ 200 10/300 increase GL (dimers, linear assemblies) or Superose™ 6 increase 10/300 GL (symmetric assemblies) (all columns from GE healthcare) using the absorbance at 230 nm or 473 nm (for GFP tagged components) as read-out. Dimers were mixed at monomer concentrations of 5 μM or higher. Trimer and ABCD tetramer mixtures contained 5 μM of the bivalent connector, and 7.5 μM of each terminal cap (lower absolute concentrations with the same ratios were used for some trimers). ABCA tetramer mixtures contained 5 μM per bivalent connector and 15 μM terminal cap. The hexamer mixture contained 3 μM of components C and D, 3.6 μM of B and E, and 4.4 μM of A and F. The branched assembly shown in FIG. 4A contained 2.8 μM of the trivalent connector and 4 μM of each cap. For the exchange experiment shown in FIG. 5A, the ABC trimer was preincubated at concentrations of 6 μM B and 9 μM each of A and C. C′ was then added to reach a final concentration of 2 μM B, 3 μM each of A and C, and 6 μM C′.
SEC peak fractions were concentrated prior to negative stain EM screening. Samples were then immediately diluted 5 to 150 times in TBS buffer (25 mM Tris pH 8.0, 25 mM NaCl) depending on sample concentration. A final volume of 5 μL was applied to negatively glow discharged, carbon-coated 400-mesh copper grids (01844-F, TedPella, Inc.), then washed with Milli-Q™ Water and stained using 0.75% uranyl formate as previously described (53). Air-dried grids were imaged on a FEI Talos L120C TEM (FEI Thermo Scientific, Hillsboro, OR) equipped with a 4K×4K Gatan OneView™ camera at a magnification of 57,000× and pixel size of 2.51. Micrographs were imported into CisTEM software or cryoSPARC™ software and a circular blob picker was used to select particles which were then subjected to 2D classification. […]

Binder	binding result [1]	binding result (DFB0)	binding result (DFB-1)	binding result (TF3)	binding result (TF10)
B1	no binding (tested: 8.0 uM)	binds	binds	binds	binds
B2	–	binds	binds	binds	binds
